Biological target: GST-OGG1 wt (UniProt O15527 1-345)
Assay: EMSA

GST-OGG1 wt, sequence (O15527 whole entry): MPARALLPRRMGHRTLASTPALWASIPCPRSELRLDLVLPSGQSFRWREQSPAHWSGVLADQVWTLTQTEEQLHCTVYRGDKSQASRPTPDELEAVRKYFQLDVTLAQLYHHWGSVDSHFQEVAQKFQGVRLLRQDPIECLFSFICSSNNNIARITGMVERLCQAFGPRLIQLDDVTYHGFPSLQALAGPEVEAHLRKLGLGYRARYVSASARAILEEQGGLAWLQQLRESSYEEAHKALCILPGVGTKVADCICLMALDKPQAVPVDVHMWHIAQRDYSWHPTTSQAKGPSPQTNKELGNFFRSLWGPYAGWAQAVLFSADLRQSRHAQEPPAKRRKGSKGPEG

Row | Binder | binding result
1 | G2 probe (8-oxoG) (dsDNA, 8-oxoG at position 27 of strand 1 (antisense)) DNA 1: CGATGTCTGGAAAAGCCCGGGGACCAGGGAA DNA 2: TTCCCTGGTCCCCGGGCTTTTCCAGACATCG | binds
2 | Cy5 probe (8-oxoG) (dsDNA, 8-oxoG at position 16 of strand 1) DNA 1: AGAGAAGAAGAAGAAGAGATGGGTTATTCGAACTAGC DNA 2: GCTAGTTCGAATAACCCATCTCTTCTTCTTCTTCTCT | binds

Source: publication PMC7318607
